This experiment concerns the target T1, Human TROP2 Protein, His Tag (Acro Biosystems) (human, UniProt P09758 27-274).
T1 construct: Bought antigen used at 50 nM in the Octet screen; also called TACSTD2; not shown: His tag
T1 sequence (looked up): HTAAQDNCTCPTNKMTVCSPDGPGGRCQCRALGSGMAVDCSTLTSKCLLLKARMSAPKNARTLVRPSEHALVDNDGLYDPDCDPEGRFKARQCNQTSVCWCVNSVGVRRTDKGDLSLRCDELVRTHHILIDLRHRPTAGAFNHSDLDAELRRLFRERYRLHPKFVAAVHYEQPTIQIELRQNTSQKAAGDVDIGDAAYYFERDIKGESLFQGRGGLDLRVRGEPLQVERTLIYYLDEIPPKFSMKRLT
Put plainly: BLI (Octet) [1/2]. Here is the method: After allowing for four days of protein expression, cell culture supernatants were collected, quantified by SDS-PAGE analysis (DNS), and the pH dependence of the variant was evaluated using biolayer interferometry (BLI) on an Octet RED 96e instrument. Briefly, cell culture supernatants were diluted based on qualitative expression level of the variant determined by visual examination of SDS-PAGE gels, 5 μL of cell culture supernatant was diluted into 195 μL of 1×PBST, pH 7.4 for high expressors, 25 μL of cell culture supernatant was diluted into 175 μL of 1×PBST, pH 7.4 for medium expressors and 100 μL of cell culture supernatant was diluted into 100 μL of 1×PBST, pH 7.4 for low expressors for loading onto the sensor tips. The resulting diluted supernatants were then captured on an anti-human Fc sensor (Forte Bio). A baseline was established using 1×PBST (50 mM Potassium Phosphate Buffer+150 mM NaCl+0.05% Tween 20) pH 7.4, and the sensor was associated with 50 nM of TROP2 (Human TROP2 Protein, His Tag, Acro Biosystems) in 1×PBST pH 7.4 for 120 sec to generate an association curve. In the dissociation phase, the antibody-antigen complex on the sensor was exposed to 1×PBST pH 7.4 or pH 5.4, for 300 sec. Association and dissociation phase curves were examined for the starting ABPC antibody (with no substitutions) and each corresponding antibody variant at pH 5.4 and pH 7.4 to inform on two criteria: a) enhanced dissociation (i.e., higher koff values) at pH 5.4 due to histidine or alanine substitution compared to the starting ABPC, (with no substitutions), and b) reduced dissociation at pH 7.4 (i.e., lower koff values) compared to pH 5.4 in the antibody variant itself and with the starting ABPC (with no substitutions). […] It was also noted that while some mutations obliterated TROP2 binding, others were tolerated with little or n change in TROP2 binding kinetics.
For orientation: BLI is a label-free optical method that tracks binding on a fibre tip over time.

The record followed here is US20260274985A1 (MYTHIC THERAPEUTICS, published 2026).

Changes are numbered by the printed parent chain.

B1: MYT11707 (antibody, V domains shown)
VH: QVQLQESGPGLVKPSETLSLTCTVSGGHISSYGVHWIRQPPGKGLEWIGVIWTSGVTDYNSALMGRVTISVDTSKNQFSLKLSSVTAADTAVYYCARDGDYDRYTMDYWGQGTLVTVSS
VL: DIVMTQSPDSLAVSLGERATINCRASKSVSTSGYSYMHWYQQKPGQPPKLLIYLASNLESGVPDRFSGSGSGTDFTLTISSLQAEDVAVYYCQHSRELPYTFGQGTKLEIK
notes: hu7E6SVG variant, His at HCV position 28 (H1 03); screened as IgG in Expi293 supernatant
On to B1, for which the binding result is on record as “binds”.

B2: MYT11731 (antibody, V domains shown)
VH: B1 VH with H28S, A96H
VL: B1 VL
notes: hu7E6SVG variant, His at HCV position 96 (H3 01); screened as IgG in Expi293 supernatant
For the molecule B2, the binding result was “no binding (tested: 50 nM)”.

B3: MYT11715 (antibody, V domains shown)
VH: B1 VH with H28S, V50H
VL: B1 VL
notes: hu7E6SVG variant, His at HCV position 50 (H2 01); screened as IgG in Expi293 supernatant
Turning to B3, the binding result was “no binding (tested: 50 nM)”.

B4: MYT11720 (antibody, V domains shown)
VH: B1 VH with H28S, G55H
VL: B1 VL
notes: hu7E6SVG variant, His at HCV position 55 (H2 06); screened as IgG in Expi293 supernatant
As to B4, the binding result was “binds”.

B5: MYT11733 (antibody, V domains shown)
VH: B1 VH with H28S, D98H
VL: B1 VL
notes: hu7E6SVG variant, His at HCV position 98 (H3 03); screened as IgG in Expi293 supernatant
For the molecule B5, the binding result is “no binding (tested: 50 nM)”.

B6: MYT11742 (antibody, V domains shown)
VH: B1 VH with H28S, D107H
VL: B1 VL
notes: screened as IgG in Expi293 supernatant
Regarding B6, the binding result is given as “binds”.

B7: MYT11713 (antibody, V domains shown)
VH: B1 VH with H28S, V34H
VL: B1 VL
notes: hu7E6SVG variant, His at HCV position 34 (H1 09); screened as IgG in Expi293 supernatant
As to B7, the binding result was “binds”.

B8: MYT11739 (antibody, V domains shown)
VH: B1 VH with H28S, Y104H
VL: B1 VL
notes: hu7E6SVG variant, His at HCV position 104 (H3 09); screened as IgG in Expi293 supernatant
For the molecule B8, the binding result was “no binding (tested: 50 nM)”.

B9: MYT11737 (antibody, V domains shown)
VH: B1 VH with H28S, D102H
VL: B1 VL
notes: as for B6
Turning to B9, the binding result is recorded as “binds”.

B10: MYT11716 (antibody, V domains shown)
VH: B1 VH with H28S, I51H
VL: B1 VL
notes: hu7E6SVG variant, His at HCV position 51 (H2 02); screened as IgG in Expi293 supernatant
For the molecule B10, the binding result was “binds”.

B11: MYT11714 (antibody, V domains shown)
VH: B1 VH with H28S, H35A
VL: B1 VL
notes: hu7E6SVG variant, Ala in place of His at HCV position 35 (H1 10); screened as IgG in Expi293 supernatant
Turning to B11, the binding result is on record as “binds”.

B12: MYT11727 (antibody, V domains shown)
VH: B1 VH with H28S, A62H
VL: B1 VL
notes: hu7E6SVG variant, His at HCV position 62 (H2 13); screened as IgG in Expi293 supernatant
With B12, the binding result was “binds”.

B13: MYT11735 (antibody, V domains shown)
VH: B1 VH with H28S, D100H
VL: B1 VL
notes: hu7E6SVG variant, His at HCV position 100 (H3 05); screened as IgG in Expi293 supernatant
B13: the binding result is listed as “binds”.

B14: MYT11734 (antibody, V domains shown)
VH: B1 VH with H28S, G99H
VL: B1 VL
notes: hu7E6SVG variant, His at HCV position 99 (H3 04); screened as IgG in Expi293 supernatant
As for B14, the binding result was “no binding (tested: 50 nM)”.

B15: MYT11738 (antibody, V domains shown)
VH: B1 VH with H28S, R103H
VL: B1 VL
For B15, the binding result is “binds”.

B16: MYT11710 (antibody, V domains shown)
VH: B1 VH with H28S, S31H
VL: B1 VL
notes: hu7E6SVG variant, His at HCV position 31 (H1 06); screened as IgG in Expi293 supernatant
As for B16, the binding result is “binds”.

B17: MYT11730 (antibody, V domains shown)
VH: B1 VH with H28S, G65H
VL: B1 VL
notes: hu7E6SVG variant, His at HCV position 65 (H2 16); screened as IgG in Expi293 supernatant
Consider B17, for which the binding result is recorded as “binds”.

B18: MYT11724 (antibody, V domains shown)
VH: B1 VH with H28S, Y59H
VL: B1 VL
Take B18: the binding result is given as “binds”.

B19: MYT11708 (antibody, V domains shown)
VH: B1 VH with H28S, I29H
VL: B1 VL
notes: hu7E6SVG variant, His at HCV position 29 (H1 04); screened as IgG in Expi293 supernatant
Regarding B19, the binding result was “binds”.

B20: MYT11728 (antibody, V domains shown)
VH: B1 VH with H28S, L63H
VL: B1 VL
notes: hu7E6SVG variant, His at HCV position 63 (H2 14); screened as IgG in Expi293 supernatant
In the case of B20, the binding result is “binds”.

B21: MYT11725 (antibody, V domains shown)
VH: B1 VH with H28S, N60H
VL: B1 VL
notes: hu7E6SVG variant, His at HCV position 60 (H2 11); screened as IgG in Expi293 supernatant
As for B21, the binding result is given as “binds”.

B22: MYT11729 (antibody, V domains shown)
VH: B1 VH with H28S, M64H
VL: B1 VL
notes: hu7E6SVG variant, His at HCV position 64 (H2 15); screened as IgG in Expi293 supernatant
In the case of B22, the binding result is “binds”.

B23: MYT11721 (antibody, V domains shown)
VH: B1 VH with H28S, V56H
VL: B1 VL
notes: hu7E6SVG variant, His at HCV position 56 (H2 07); screened as IgG in Expi293 supernatant
With B23, the binding result is “binds”.

B24: MYT11743 (antibody, V domains shown)
VH: B1 VH with H28S, Y108H
VL: B1 VL
notes: as for B6
Consider B24, for which the binding result is listed as “binds”.

B25: MYT11723 (antibody, V domains shown)
VH: B1 VH with H28S, D58H
VL: B1 VL
notes: hu7E6SVG variant, His at HCV position 58 (H2 09); screened as IgG in Expi293 supernatant
In the case of B25, the binding result was “no binding (tested: 50 nM)”.

B26: MYT11732 (antibody, V domains shown)
VH: B1 VH with H28S, R97H
VL: B1 VL
notes: hu7E6SVG variant, His at HCV position 97 (H3 02); screened as IgG in Expi293 supernatant
B26: the binding result is reported as “binds”.

B27: MYT11712 (antibody, V domains shown)
VH: B1 VH with H28S, G33H
VL: B1 VL
notes: hu7E6SVG variant, His at HCV position 33 (H1 08); screened as IgG in Expi293 supernatant
Regarding B27, the binding result is on record as “binds”.

B28: MYT11740 (antibody, V domains shown)
VH: B1 VH with H28S, T105H
VL: B1 VL
notes: as for B6
Consider B28, for which the binding result is listed as “no binding (tested: 50 nM)”.

B29: MYT11719 (antibody, V domains shown)
VH: B1 VH with H28S, S54H
VL: B1 VL
notes: hu7E6SVG variant, His at HCV position 54 (H2 05); screened as IgG in Expi293 supernatant
With B29, the binding result is given as “binds”.

B30: MYT11722 (antibody, V domains shown)
VH: B1 VH with H28S, T57H
VL: B1 VL
notes: hu7E6SVG variant, His at HCV position 57 (H2 08); screened as IgG in Expi293 supernatant
As to B30, the binding result is reported as “binds”.

B31: MYT11711 (antibody, V domains shown)
VH: B1 VH with H28S, Y32H
VL: B1 VL
notes: hu7E6SVG variant, His at HCV position 32 (H1 07); screened as IgG in Expi293 supernatant
Take B31: the binding result is recorded as “binds”.

B32: MYT11718 (antibody, V domains shown)
VH: B1 VH with H28S, T53H
VL: B1 VL
notes: hu7E6SVG variant, His at HCV position 53 (H2 04); screened as IgG in Expi293 supernatant
On to B32, for which the binding result was “binds”.

B33: MYT11736 (antibody, V domains shown)
VH: B1 VH with H28S, Y101H
VL: B1 VL
notes: hu7E6SVG variant, His at HCV position 101 (H3 06); screened as IgG in Expi293 supernatant
As to B33, the binding result is “no binding (tested: 50 nM)”.

B34: MYT11726 (antibody, V domains shown)
VH: B1 VH with H28S, S61H
VL: B1 VL
notes: hu7E6SVG variant, His at HCV position 61 (H2 12); screened as IgG in Expi293 supernatant
For the molecule B34, the binding result was “binds”.

B35: MYT11709 (antibody, V domains shown)
VH: B1 VH with H28S, S30H
VL: B1 VL
notes: hu7E6SVG variant, His at HCV position 30 (H1 05); screened as IgG in Expi293 supernatant
Turning to B35, the binding result is “binds”.
